Laboratory results: patent US6991908B1, “Antiobestic agents methods for screening antiobestic agents and kits comprising same” (Takeda Chemical Industries, Ltd., priority 1998, dated 2006)
Positions of bridges follow the written chain, without caps; N, C: chain ends. No end group written: not given here. *: point of attachment. X1 = 3‑(4-hydroxy-3-iodophenyl)propionyl, O=C(CCc1ccc(O)c(I)c1)*

What was measured:
Format in all cases: biochemical
rat SLC-1 [1] = molecular target: T1, rat SLC-1 (Rattus norvegicus, UniProt P97639); assay: Inhibition of MCH-induced GTPγS binding by the method of Example 21 (compound plus MCH); settings: read-out: IC50 calculated from the binding inhibition rate (%)
T1 construct: expressed in transfected cells; host or cells: CHO dhfr- cells, plasmid pAKK0-SLC-1, mainly clone #44
T1 sequence (P97639 whole entry): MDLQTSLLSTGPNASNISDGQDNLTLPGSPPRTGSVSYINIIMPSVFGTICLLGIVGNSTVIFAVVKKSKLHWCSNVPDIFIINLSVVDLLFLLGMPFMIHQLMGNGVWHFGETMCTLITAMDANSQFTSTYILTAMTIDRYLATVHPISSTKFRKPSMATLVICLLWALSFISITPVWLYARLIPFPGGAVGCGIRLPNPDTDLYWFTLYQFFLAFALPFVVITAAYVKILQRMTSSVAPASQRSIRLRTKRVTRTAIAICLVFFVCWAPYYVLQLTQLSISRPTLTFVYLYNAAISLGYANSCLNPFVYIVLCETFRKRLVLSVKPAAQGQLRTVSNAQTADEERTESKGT
Method: The IC50(nM) of the compound (1) supra
(§1) A rat SLC-1-expression CHO cell membrane fraction was prepared by the following procedure. Rat SLC-1-expression CHO cells (1×10^8 cells) were suspended in phosphate buffered saline (pH 7.4) supplemented with 5 mM EDTA (ethylene diamine tetra acetic acid) followed by centrifugation. after 10 ml of a homogenate buffer (10 mM NaHCO3, 5 mM EDTA, pH 7.5) was added to the cell pellets, the mixture was homogenized with a polytron homogenizer. the homogenate was then centrifuged at 400×g for 15 minutes. the resulting supernatant was further centrifuged at 100,000×g for an hour to give membrane fraction precipitates. the precipitates were suspended in 2 ml of an assay buffer (50 mM Tris-HCl (pH 7.5), 1 mM EDTA, 0.1% BSA (bovine serum albumin), 10 mM MgCl2, 100 mM NaCl, 1 μM GDP (guanosine 5′-diphosphate), 0.25 mM PMSF (phenylmethylsulfonyl fluoride), 1 μg/ml pepstatin, 20 μg/ml leupeptin, 10 μg/ml phosphoramidon). the suspension was centrifuged at 100,000×g for an hour. the cell membrane recovered as precipitates was resuspended in 20 ml of the assay buffer. after dispensing, the suspension was stored at −80° C., which maybe thawed every time upon use.

rat SLC-1 [2] = molecular target: T1, rat SLC-1; assay: Agonist activity by GTPγS binding assay, rat SLC-1-expression CHO cell membrane fraction (Example 21); settings: rat SLC-1 membrane, FIG. 7
Method: as §1

human SLC-1 = molecular target: T2, human SLC-1 (Homo sapiens, UniProt Q99705); assay: Agonist activity of Bolton-Hunter derivatized MCHs by GTPγS binding assay (Example 22); settings: membrane fraction given as human SLC-1-expression CHO; FIG. 8
T2 construct: expressed in transfected cells; host or cells: CHO dhfr- cells, plasmid pAKK0-hSLC-1(S) or pAKK0-hSLC-1(L)
T2 sequence (Q99705 with tags, fused parts or gaps): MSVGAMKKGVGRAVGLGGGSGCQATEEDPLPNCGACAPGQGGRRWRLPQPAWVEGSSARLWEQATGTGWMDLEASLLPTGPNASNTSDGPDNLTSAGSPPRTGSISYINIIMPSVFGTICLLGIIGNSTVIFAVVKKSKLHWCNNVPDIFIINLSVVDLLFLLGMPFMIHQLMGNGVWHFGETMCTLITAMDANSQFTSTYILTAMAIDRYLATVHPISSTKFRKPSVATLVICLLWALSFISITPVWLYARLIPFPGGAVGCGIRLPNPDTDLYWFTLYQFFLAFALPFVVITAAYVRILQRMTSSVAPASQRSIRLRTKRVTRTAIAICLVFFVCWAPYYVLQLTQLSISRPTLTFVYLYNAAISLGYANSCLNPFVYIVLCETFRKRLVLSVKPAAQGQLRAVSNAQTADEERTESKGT

Molecule | agonist activity as compared to that of MCH (rat SLC-1 [2]) | amount of [35S]-GTPγS bound (agonist activity), dose dependence (human SLC-1) | also measured
COc1ccc(-c2ccc(C(=O)Nc3ccc4c(c3)CCC(CN(C)C)C4)cc2)cc1 (stereo not shown) [compound (1), N-[2-(N,N-Dimethylamino)methyl-6-tetralinyl]-(4′-methoxybiphenyl-4-yl)carboxamide] | – | – | IC50 (rat SLC-1 [1]): 40 nM
BH-MCH(2-19): MCH(2-19) derivatized with a non-isotope Bolton-Hunter reagent (X1-FDMLRCMLGRVYRPCWQV; disulfide 6-15) | – | increased dose-dependently | –
BH-MCH(5-19): MCH(5-19) derivatized with a non-isotope Bolton-Hunter reagent (X1-LRCMLGRVYRPCWQV; disulfide 3-12) | – | increased dose-dependently | –
Des-[Asp^1, Phe^2, Asp^3, Met, Leu^5]-MCH (RCMLGRVYRPCWQV; disulfide 2-11) [MCH(6-19)] | – | – | decrease of agonist activity as compared to that of MCH (rat SLC-1 [2]): approximately 10 times
Leu-Arg-Cys-Met-Leu-Gly-Arg-Val-Tyr-Arg-Pro-Cys-Trp-Gln -Val-OH (LRCMLGRVYRPCWQV-OH; disulfide 3-12; N-terminus assumed; SMILES CSCC[C@@H]1NC(=O)[C@@H](NC(=O)[C@H](CCCNC(=N)N)NC(=O)[C@@H](N)CC(C)C)CSSC[C@@H](C(=O)N[C@@H](Cc2c[nH]c3ccccc23)C(=O)N[C@@H](CCC(N)=O)C(=O)N[C@H](C(=O)O)C(C)C)NC(=O)[C@@H]2CCCN2C(=O)[C@H](CCCNC(=N)N)NC(=O)[C@H](Cc2ccc(O)cc2)NC(=O)[C@H](C(C)C)NC(=O)[C@H](CCCNC(=N)N)NC(=O)CNC(=O)[C@H](CC(C)C)NC1=O) [MCH(5-19)] | almost the same agonist activity | – | –
Phe-Asp-Met-Leu-Arg-Cys-Met-Leu-Gly-Arg-Val-Tyr-Arg-Pro -Cys-Trp-Gln-Val (FDMLRCMLGRVYRPCWQV; disulfide 6-15) [MCH(2-19)] | almost the same agonist activity | – | –

Continued, in another order:

agonist activity as compared to that of MCH (rat SLC-1 [2]) | amount of [35S]-GTPγS bound (agonist activity), dose dependence (human SLC-1) | Molecule | also measured
almost the same agonist activity | – | Asp-Met-Leu-Arg-Cys-Met-Leu-Gly-Arg-Val-Tyr-Arg-Pro-Cys -Trp-Gln-Val (DMLRCMLGRVYRPCWQV; disulfide 5-14) [MCH(3-19)] | –
– | increased dose-dependently | BH-MCH(3-19): MCH(3-19) derivatized with a non-isotope Bolton-Hunter reagent (X1-DMLRCMLGRVYRPCWQV; disulfide 5-14) | –
almost the same agonist activity | – | Met-Leu-Arg-Cys-Met-Leu-Gly-Arg-Val-Tyr-Arg-Pro-Cys-Trp -Gln-Val (MLRCMLGRVYRPCWQV; disulfide 4-13) [MCH(4-19)] | –
– | increased dose-dependently | [N-(3-(4-Hydroxy-3-iodophenyl)propionyl)-Met^4]-MCH(4-19) (X1-MLRCMLGRVYRPCWQV; disulfide 4-13) [BH-MCH(4-19)] | –
